Target: His6-GanR (Bacillus subtilis 3610) (UniProt O07008)
Assay: EMSA
Conditions: 10 mM Tris-HCl (pH not stated), 50 mM NaCl, 1 mM EDTA, 5% glycerol, 1 mM DTT, 10 ug/ml BSA, on ice 20 min; Cy3 probes with poly-dIdC, gel 0.5X TBE at 4 C

Chain of His6-GanR (Bacillus subtilis 3610) (O07008 whole entry): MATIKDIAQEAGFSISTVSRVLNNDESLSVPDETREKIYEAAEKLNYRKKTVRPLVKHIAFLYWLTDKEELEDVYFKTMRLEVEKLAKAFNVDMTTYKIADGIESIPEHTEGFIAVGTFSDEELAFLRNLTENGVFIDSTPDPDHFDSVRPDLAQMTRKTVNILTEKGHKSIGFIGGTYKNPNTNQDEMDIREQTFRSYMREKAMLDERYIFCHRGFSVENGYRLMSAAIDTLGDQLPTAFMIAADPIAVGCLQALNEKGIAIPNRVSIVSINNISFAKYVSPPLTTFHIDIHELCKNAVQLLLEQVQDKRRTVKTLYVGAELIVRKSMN

For “GTACGAATTCCCGCGCTGTATTCCGGCTTGAGAACAGCTTTTGAAAAGTAAGCTGTTTGGGAAAGTTAAATAATCTTTAATTCGAGATGTTTTACTTGAAAGTAAATTTCTTTGTCTCTATAATAAAGTCTAAGAGAGACAGAATAATCATTATGCATCTGTATGATAATAATTGATGTGTGATGGATCCGTAC (double strand) [PyvaB (yvaB promoter)]”, the binding was “no binding”.

— paper PMC5472308, “Characterization of the regulation of a plant polysaccharide utilization operon and its role in biofilm formation in Bacillus subtilis” (PLoS ONE, 2017)
